Data reported in patent US12194080B2, “Methods for identification, assessment, prevention, and treatment of metabolic disorders using PM20D1 and N-lipidated amino acids” (Dana-Farber Cancer Institute, Inc., priority 2015, dated 2025).
“Also recorded” adds a separate entry of the source.

Experiments:
[1] = tested on: APOA1; assay: FLAG immunoprecipitation of PM20D1-flag from primary brown fat cells with mass spectrometry identification; type: binding, mouse
Source text: The mass spectrometry identification of the indicated proteins (PM20D1 or APOA1) are indicated to the right of the gel.

[2] = target: T1, mouse PM20D1 (Mus musculus, UniProt Q8C165); assay: In vitro PM20D1-catalyzed N-acyl amino acid hydrolysis; type: biochemical; conditions: PBS, 37° C., 1.5 h
T1 construct: Full-length mouse Pm20d1 cDNA (GE Dharmacon) was subcloned with an in-frame C-terminal 6× His and FLAG® tag; made in house; host or cells: 293A (HEK293A) cells stably infected with retrovirus
T1 sequence (Q8C165 25-503): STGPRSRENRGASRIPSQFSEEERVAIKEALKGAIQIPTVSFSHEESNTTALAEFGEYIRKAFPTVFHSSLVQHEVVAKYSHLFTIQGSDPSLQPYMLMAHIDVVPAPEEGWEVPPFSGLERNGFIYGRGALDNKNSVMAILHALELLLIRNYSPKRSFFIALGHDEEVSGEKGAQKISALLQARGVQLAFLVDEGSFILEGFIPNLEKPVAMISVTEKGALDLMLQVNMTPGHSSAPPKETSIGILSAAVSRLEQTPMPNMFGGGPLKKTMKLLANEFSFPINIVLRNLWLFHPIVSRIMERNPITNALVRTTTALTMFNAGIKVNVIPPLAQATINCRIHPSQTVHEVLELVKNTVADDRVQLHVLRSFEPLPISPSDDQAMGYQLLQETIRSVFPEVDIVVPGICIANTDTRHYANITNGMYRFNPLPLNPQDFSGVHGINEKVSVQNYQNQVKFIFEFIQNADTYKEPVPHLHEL
Description: (§1) The concentrated media was centrifuged to remove debris (600×g, 10 min, 4° C.) and the supernatant containing PM20D1-flag was decanted into a new tube. PM20D1-Flag was immunoaffinity purified overnight at 4° C. from the concentrated media using magnetic Flag-M2 beads (Sigma Aldrich). The beads were collected, washed three times in PBS, eluted with 3× Flag peptide ([…] in PBS, Sigma Aldrich), aliquoted, and stored at −80° C. For the purification of human PM20D1-flag, hPM20D1-flag plasmid (Origene) was transiently transfected into 293A cells. After two days, the media was changed, harvested 24 h later, concentrated, and purified exactly as described above.
(§2) In vitro PM20D1-catalyzed synthesis of N-acyl amino acids was measured by incubating purified PM20D1 protein with oleate (1.5 mM) and phenylalanine (0.1 mM) in PBS (to 100 μl final volume) at 37° C. for 1.5 hrs. In vitro PM20D1-catalyzed N-acyl amino acid hydrolysis was measured by incubating purified PM20D1 protein with the indicated N-acyl amino acid (0.1 mM) in PBS (to 100 μl final volume) at 37° C. for 1.5 hrs. Reactions were terminated by placing the vials at −80° C. and the products generated in vitro were analyzed by mass spectroscopy (MS).
(§3) Briefly, frozen serum (30 μl) for polar metabolomic analyses were extracted in 160 μl of 1:1 acetonitrile/methanol with inclusion of internal standard D3, ^15N-serine (1 nmol). Activity assays (100 μl) were extracted in 400 μl 1:1 acetonitrile/methanol. Following 30 s of thorough vortexing and 1 min of bath sonication, the polar metabolite fraction (supernatant) was isolated by centrifugation at 13,000×g for 10 min. Ten μl of this supernatant was analyzed by SRM-based targeted LC-MS/MS, or untargeted LC-MS.
(§4) For separation of polar metabolites, normal-phase chromatography was performed with a […] column (50 mm×4.60 mm, Phenomenex). Mobile phases were as follows: Buffer A, acetonitrile; Buffer B, 95:5 water/acetonitrile with 0.1% formic acid or 0.2% ammonium hydroxide with 50 mM ammonium acetate for positive and negative ionization mode, respectively. The flow rate for each run started at 0.2 ml/min for 2 min, followed by a gradient starting at 0% B and increasing linearly to 100% B over the course of 15 min with a flow rate of 0.7 ml/min, followed by an isocratic gradient of 100% B for 10 min at 0.7 ml/min before equilibrating for 5 min at 0% B with a flow rate of 0.7 ml/min. MS analysis was performed with an electrospray ionization (ESI) source on an Agilent 6430 QQQ LC—MS/MS. The capillary voltage was set to 3.5 kV, and the fragmentor voltage was set to 100 V. The drying gas temperature was 325° C., the drying gas flow rate was 10 l/min, and the nebulizer pressure was 45 psi. For polar targeted and untargeted metabolomic analysis, representative metabolites were quantified by SRM of the transition from precursor to product ions (corresponding to amino acid fragment) at associated collision energies. Several representative fragmentation ions are as follows: C18:1-Ala, 352>88; C18:1-Gly, 338>74; C18:1-Phe, 428>164; C18:1-Leu/Ile, 394>130; C20:4-Phe, 450>164; C20:4-Leu/Ile, 416>130. Untargeted LC-MS was performed by scanning a mass range of m/z 50-1200, and data were exported as mzdata files and uploaded to XCMSOnline (xcmsserver.nutr.berkeley.edu) to identify metabolites that were differentially changed. For targeted metabolomics analysis, metabolites were quantified by integrating the area under the peak and were normalized to internal standard values corresponding to 1 nmol D3, ^15N-serine.

[3] = target: T1, mouse PM20D1; assay: In vitro PM20D1-catalyzed synthesis of N-acyl amino acids; type: biochemical; conditions: PBS, 37° C., 1.5 h
Description: as §1, §2, §3, §4

B1: PM20D1: purified recombinant C-terminal 6xHis/flag-tagged mouse peptidase M20 domain containing 1, a secreted enzyme (protein, listed as Homo sapiens)
chain: MAQRCVCVLALVAMLLLVFPTVSRSMGPRSGEHQRASRIPSQFSKEERVAMKEALKGAIQIPTVTFSSEKSNTTALAEFGKYIHKVFPTVVSTSFIQHEVVEEYSHLFTIQGSDPSLQPYLLMAHFDVVPAPEEGWEVPPFSGLERDGIIYGRGTLDDKNSVMALLQALELLLIRKYIPRRSFFISLGHDEESSGTGAQRISALLQSRGVQLAFIVDEGGFILDDFIPNFKKPIALIAVSEKGSMNLMLQVNMTSGHSSAPPKETSIGILAAAVSRLEQTPMPIIFGSGTVVTVLQQLANEFPFPVNIILSNPWLFEPLISRFMERNPLTNAIIRTTTALTIFKAGVKFNVIPPVAQATVNFRIHPGQTVQEVLELTKNIVADNRVQFHVLSAFDPLPVSPSDDKALGYQLLRQTVQSVFPEVNITAPVTSIGNTDSRFFTNLTTGIYRFYPIYIQPEDFKRIHGVNEKISVQAYETQVKFIFELIQNADTDQEPVSHLHKL
modifications: C-terminal 6xHis/flag tag
notes: purified recombinant C-terminal 6xHis/flag-tagged mouse peptidase M20 domain containing 1, a secreted enzyme
interaction with apolipoprotein 1 (APOA1) [1]: interacts with apolipoprotein 1 (APOA1) | conversion in the hydrolase direction ([2]; C18:1-Phe 100 μM, n=3): 94.0±0.8% | N-acyl amino acid hydrolase activity ([2]; C18:1-Phe as substrate): possessed enzymatic activity | conversion in the synthase direction ([3]; oleate 1.5 mM, Phe 100 μM, n=3): 1.2±0.1% | N-acyl amino acid synthase activity ([3]; oleate and Phe as substrates): Significant formation of C18:1-Phe; also recorded: possessed enzymatic activity
